This is an account of results in PMC3656109.

For assay [1], the target named is KSHV gH (V5 epitope-tagged)/gL complex (Kaposi's sarcoma-associated herpesvirus (KSHV, HHV-8)) (UniProt F5HAK9).
Assay [2] deals with RRV 26-95 gH (V5 epitope-tagged)/gL complex (rhesus monkey rhadinovirus (RRV) strain 26-95).

Sequence of UniProt F5HAK9 (F5HAK9 whole entry, looked up, one chain of several): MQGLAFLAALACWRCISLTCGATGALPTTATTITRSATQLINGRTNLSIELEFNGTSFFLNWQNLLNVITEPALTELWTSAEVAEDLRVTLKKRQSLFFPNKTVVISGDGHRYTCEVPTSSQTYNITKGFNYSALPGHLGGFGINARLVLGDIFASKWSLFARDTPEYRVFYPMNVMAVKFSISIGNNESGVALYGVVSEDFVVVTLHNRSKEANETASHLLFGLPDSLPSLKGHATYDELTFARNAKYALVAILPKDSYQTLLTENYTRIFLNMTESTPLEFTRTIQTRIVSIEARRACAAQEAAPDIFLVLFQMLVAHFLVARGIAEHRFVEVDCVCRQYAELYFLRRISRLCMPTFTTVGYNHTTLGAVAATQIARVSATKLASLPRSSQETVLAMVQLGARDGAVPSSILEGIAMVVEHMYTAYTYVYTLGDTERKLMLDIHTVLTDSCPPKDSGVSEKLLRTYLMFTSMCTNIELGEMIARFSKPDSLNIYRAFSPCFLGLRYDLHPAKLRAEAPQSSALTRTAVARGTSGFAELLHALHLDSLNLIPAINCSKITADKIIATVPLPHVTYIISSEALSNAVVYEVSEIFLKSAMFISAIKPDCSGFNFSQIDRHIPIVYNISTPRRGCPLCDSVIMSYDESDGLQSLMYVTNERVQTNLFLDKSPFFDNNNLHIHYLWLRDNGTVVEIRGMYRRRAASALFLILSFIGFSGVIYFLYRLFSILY

Turning to “EphA7-Fc (from UniProt Q15375 28-555) (Fc fusion)”, the entry of KSHV into rhesus fibroblasts after pre-incubation of the virus with EphA7-Fc (1 to 20 µg/ml; no block at 1 µg/ml, value at 20 µg/ml) in assay [1] is -35%.

B1: EphB3-Fc (Fc fusion)
chain: GCRALEETLMDTKWVTSELAWTSHPESGWEEVSGYDEAMNPIRTYQVCNVRESSQNNWLRTGFIWRRDVQRVYVELKFTVRDCNSIPNIPGSCKETFNLFYYEADSDVASASSPFWMENPYVKVDTIAPDESFSRLDAGRVNTKVRSFGPLSKAGFYLAFQDQGACMSLISVRAFYKKCASTTAGFALFPETLTGAEPTSLVIAPGTCIPNAVEVSVPLKLYCNGDGEWMVPVGACTCATGHEPAAKESQCRPCPPGSYKAKQGEGPCLPCPPNSRTTSPAASICTCHNNFYRADSDSADSACTTVPSPPRGVISNVNETSLILEWSEPRDLGGRDDLLYNVICKKCHGAGGASACSRCDDNVEFVPRQLGLTERRVHISHLLAHTRYTFEVQAVNGVSGKSPLPPRYAAVNITTNQAAPSEVPTLRLHSSSGSSLTLSWAPPERPNGVILDYEMKYFEKSEGIASTVTSQMNSVQLDGLRPDARYVVQVRARTVAGYGQYSRPAEFETTSERGSGAQQLQEQLPL
For B1, in assay [2], the decrease in nuclear accumulation of the RRV genome in HUVEC four hours post infection (real-time PCR) in the presence of 5 µg/ml EphB3-Fc came out at 74%.

B2: EphA1-Fc (Fc fusion)
chain: KEVTLMDTSKAQGELGWLLDPPKDGWSEQQQILNGTPLYMYQDCPMQGRRDTDHWLRSNWIYRGEEASRVHVELQFTVRDCKSFPGGAGPLGCKETFNLLYMESDQDVGIQLRRPLFQKVTTVAADQSFTIRDLVSGSVKLNVERCSLGRLTRRGLYLAFHNPGACVALVSVRVFYQRCPETLNGLAQFPDTLPGPAGLVEVAGTCLPHARASPRPSGAPRMHCSPDGEWLVPVGRCHCEPGYEEGGSGEACVACPSGSYRMDMDTPHCLTCPQQSTAESEGATICTCESGHYRAPGEGPQVACTGPPSAPRNLSFSASGTQLSLRWEPPADTGGRQDVRYSVRCSQCQGTAQDGGPCQPCGVGVHFSPGARGLTTPAVHVNGLEPYANYTFNVEAQNGVSGLGSSGHASTSVSISMGHAESLSGLSLRLVKKEPRQLELTWAGSRPRSPGANLTYELHVLNQDEERYQMVLEPRVLLTELQPDTTYIVRVRMLTPLGPGPFSPDHEFRTSPPVSRGLTGGE
For the molecule B2, the entry of KSHV into rhesus fibroblasts after pre-incubation of the virus with EphA1-Fc (1 to 20 µg/ml; no block at 1 µg/ml, value at 20 µg/ml) in assay [1] was -22%.
